In the assay the target is IL10Rβ on human cell lines (HT-29, HEK-293T) (human (cells stated as human)) (UniProt Q08334). Briefly: cell-based or functional assay.
IL10Rβ on human cell lines (HT-29, HEK-293T) (human (cells stated as human)), sequence (Q08334 20-325): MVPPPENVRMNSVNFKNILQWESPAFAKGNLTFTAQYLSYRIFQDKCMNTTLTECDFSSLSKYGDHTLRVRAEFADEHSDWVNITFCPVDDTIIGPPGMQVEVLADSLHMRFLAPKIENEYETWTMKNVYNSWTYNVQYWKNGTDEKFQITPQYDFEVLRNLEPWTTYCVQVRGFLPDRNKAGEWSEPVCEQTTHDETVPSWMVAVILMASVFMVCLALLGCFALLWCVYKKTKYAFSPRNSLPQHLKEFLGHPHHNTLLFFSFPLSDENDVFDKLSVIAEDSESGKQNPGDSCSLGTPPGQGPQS

Substance “22-B3 (mouse IL-22 S45E/Q116A/K124A/Q128A) (from UniProt Q9JJY9 34-179) (ligand)” had an Emax for STAT1 (phospho-Y701-STAT1) in HT-29 cells, phospho-flow (% of the WT IL-22 Emax) of 30 and an Emax for STAT3 (phospho-Y705-STAT3) in HT-29 cells, phospho-flow (% of the WT IL-22 Emax) of 100.

(Values after US20230192794A1.)
